From patent US7098309 come the findings set out here.

In experiment [1] the target is plasma-derived Dane particles (hepatitis B virus). Put plainly: AUZYME sandwich ELISA on plasma-derived Dane particles.
For experiment [2], the target named is improved recombinant hepatitis B surface antigen (rHBsAg) refolded in GSH/GSSG redox buffer, formalin omitted, formulated on alum (hepatitis B virus) (UniProt P03141). Briefly: AUZYME sandwich ELISA; row label names the rHBsAg batch (redox buffer, no formalin, glass tank).
The target in experiment [3] is improved recombinant hepatitis B surface antigen (rHBsAg) refolded in GSH/GSSG redox buffer, with formalin, formulated on alum (Bulk Alum Product) (hepatitis B virus) (UniProt P03141). Briefly: AUZYME sandwich ELISA; row label names the rHBsAg batch (redox buffer, with formalin, glass tank).
Experiment [4] addresses recombinant hepatitis B surface antigen (rHBsAg) processed without redox buffer, with formalin, formulated on alum (Bulk Alum Product) (hepatitis B virus) (UniProt P03141). Briefly: AUZYME sandwich ELISA; row label names the rHBsAg batch (no redox buffer, with formalin, glass tank).
For experiment [5], the target named is improved recombinant hepatitis B surface antigen (rHBsAg) refolded in GSH/GSSG redox buffer, formalin omitted, formulated on alum (hepatitis B virus) (UniProt P03141). Briefly: AUZYME sandwich ELISA; row label names the rHBsAg batch (redox buffer, no formalin, stainless steel tank).
Experiment [6] deals with recombinant hepatitis B surface antigen (rHBsAg) processed without redox buffer, with formalin, formulated on alum (Bulk Alum Product) (hepatitis B virus) (UniProt P03141). Briefly: AUZYME sandwich ELISA on alum-formulated rHBsAg; row label names the rHBsAg preparation (group A, no redox buffer).
Experiment [7] has the same target. Put plainly: AUZYME sandwich ELISA on alum-formulated rHBsAg; row label names the rHBsAg preparation (group B, no redox buffer). For orientation: ELISA stands for enzyme-linked immunosorbent assay.
Experiment [8] has the same target. Briefly: AUZYME sandwich ELISA on alum-formulated rHBsAg; row label names the rHBsAg preparation (group C, no redox buffer).
Experiment [9] addresses improved recombinant hepatitis B surface antigen (rHBsAg) refolded in GSH/GSSG redox buffer, with formalin, formulated on alum (Bulk Alum Product) (hepatitis B virus) (UniProt P03141). Put plainly: AUZYME sandwich ELISA on alum-formulated rHBsAg; row label names the rHBsAg preparation (group A, with 1.0 mM GSH and 0.2 mM GSSG).
The target is the same in experiment [10]. Briefly: AUZYME sandwich ELISA on alum-formulated rHBsAg; row label names the rHBsAg preparation (group B, with 1.0 mM GSH and 0.2 mM GSSG).
The target is the same in experiment [11]. Briefly: AUZYME sandwich ELISA on alum-formulated rHBsAg; row label names the rHBsAg preparation (group C, with 1.0 mM GSH and 0.2 mM GSSG).

In the case of “AUZYME monoclonal enzyme immunoassay antibodies: mouse monoclonal antibodies to hepatitis B surface antigen coated on beads, and mouse monoclonal Anti-HBsAg peroxidase conjugate (antibody)”, the ELISA response (in vitro relative potency scale) (relative to reference rHBsAg = 1.0) in experiment [1] is 5. Moreover, the IVRP (in vitro relative potency) (relative to reference rHBsAg = 1.0) in experiment [2] worked out at 4.62; in experiment [3], 4.32; in experiment [4], 2.51; in [5], 4.3; in [6], 2.09; in experiment [7], 1.69. The IVRP (in vitro relative potency) (relative to reference rHBsAg = 1.0) in experiment [8] is 1.44; in experiment [9], 3.56; in experiment [10], 2.7; in [11] it was 2.47.
